The record followed here is publication PMC9884143 (The Journal of Biological Chemistry, 2023).

In test [1] the target is SARS-CoV-2 Spike receptor-binding domain (RBD), B.1.1.529 (Omicron) variant (SARS-CoV-2, Omicron B.1.1.529 (BA.1 RBD), strain).
In test [2] the target is SARS-CoV-2 Spike receptor-binding domain (RBD), Delta variant (SARS-CoV-2, Delta (B.1.617.2; L452R, …, strain).

B1: CoV2-YD-11 (VHH)
VHH: QVQLVESGGGLVQAGGSLRLSCVVSGTTFSRYDMGWYRQAPGKARETVATISRSGTTNYAYFVKGRFTITRDNAKNTVYLQMNSLKPEDTAVYYCYIFGLDYWGQGTQVTVS
The Kd is the concentration at which binding is half-saturated. A lower Kd goes with a tighter complex. As to B1, binding in test [1] was characterised by a dissociation constant (Kd) of 0.721 nM.

B2: Rescue-1 (VHH)
VHH: DVQLVESGGGLVQAGDSLRLSCTASGRTFTTNAMGWFRQAPGKEREFVAAITWSYGTTYYSDPVEGRFTISRDNAKNTVYLQMNSLKPEDTAVYYCFYERLAWDTSTYWGQGTQVTVS
On to B2, for which the Kd in test [1] amounted to 7.02 nM; in test [2], 14.1 nM.

B3: Rescue-2 (VHH)
VHH: DVQLVESGGGLVQAGDSLRLSCTASGRTFTTNAMGWFRQAPGKEREFVAAISWNYDTTYYSDPVEGRFTISRDNAKNTVYLQMNSLKPEDTAVYYCFYERLAWDTSTYWGQGTQVTVS
B3: the Kd was determined as 27 nM in test [1] and 11.2 nM in test [2].

B4: Rescue-3 (VHH)
VHH: DVQLVESGGGLVQAGDSLRLSCTASGRTFTTNAMGWFRQAPGKEREFVAAISWNSGTTYYSDPVKGRFTISRDNAKNTVYLQMNSLKPEDTAVYYCFYERLAWDTSTYWGQGTQVTVS
For the molecule B4, the dissociation constant Kd in test [1] stood at 60.6 nM; in test [2], 27.1 nM.

B5: CoV2-YD-14 (VHH)
VHH: QVQLVESGGGLVQAGGSLRLSCSASGNTFSTYSLSWYRQAPGKQREFVAAISSGGSTSYANSVKGRFSISRDNAKKTMYLQMNSLKPEDTAVYYCYVVTTLMDYWGQGTQVTVS
The molecule B5 showed a Kd in test [1] of 0.655 nM.

B6: CoV2-YD-12 (VHH)
VHH: QVQLVESGGGLVQAGGSLRLSCAASGSTFSRLNILWWRQAAGKPREWVATSTDGGTRNYAAAVKGRFTISRDNAKNTVYLQMNSLKPEDTAVYYCYTPDYWGQGTQVTVS
Molecule B6 came in with a Kd in test [1] of 0.416 nM.

B7: CoV2-YD-5 (VHH)
VHH: QVQLVESGGGLVQAGGSLRLSCVASGTTISTYNLLWFRQAPGQQREWVASISSGGDTSYAGSVKGRFTISRDNTENTMYLQMNSLKPEDTAVYYCHGANAAHGMDYWGKGTQVTVS
For B7, the Kd in test [1] was 0.66 nM.

B8: CoV2-YD-13 (VHH)
VHH: QVQLVESGGGLVQAGGSLRLSCAASGFTFDDYAIGWFRQAPGKEREGVSCISSSGGFTNYADSVKGRFTISSDNAKNTVYLQMNSLKPEDTAVYYCAVVVNGYGLDEWAYDYWGQGTQVTVS
For the molecule B8, the Kd stood at 3.64 nM in test [1] and 45.4 nM in test [2].

B9: CoV2-YD-35 (VHH)
VHH: DVQLVESGGGLVQAGDSLRLSCTASGRTFTTNAMGWFRQAPGKEREFVAAISWSYGTTYYSDPVEGRFTISRSNAKNTVYLQMNSLKPDDTAVYYCTLRSRFNAAAWTTEAAFDYWGQGTQVTVS
For B9, the figures for the Kd in test [1] and in test [2] were 0.465 nM and 0.185 nM, respectively.

B10: CoV2-YD-36 (VHH)
VHH: QVQLVESGGGLVQAGDSLRLSCTASGRTFTTNAMGWFRQAPGKEREFVAAITWSYGTTYYSDPVEGRFTISRSNAKNTVYLQMNSLKPDDTAVYYCTLRSRFNAAAWTTEAAFDYWGQGTQVTVS
With B10, the Kd is 0.263 nM in test [1] and 0.022 nM in test [2].

B11: CoV2-YD-37 (VHH)
VHH: DVQLVESGGGLVQAGDSLRLSCTASGRTFTTNAMGWFRQAPGKEREFVAAISWNYDTTYYSDPVEGRFTISRSNAKNTVYLQMNSLKPDDTAVYYCTLRSRFNAAAWTTEAAFDYWGQGTQVTVS
Regarding B11, the Kd in test [1] is 1.56 nM; in test [2], 2.4 nM.

B12: CoV2-YD-38 (VHH)
VHH: DVQLVESGGGLVQAGDSLRLSCAASGRTFTTNAMGWFRQAPGKEREFVAAISWNSGTTYYSDPVKGRFTISRDNAKNTVYLQMNSLKPGDTAVYYCTLRSRFNAYAWTTENAFDYWGQGTQVTVS
On to B12, for which the Kd in test [1] turned out to be 2.82 nM; in test [2] it was 0.256 nM.
